Data from patent US20240117030A1 (Pfizer, published 2024).
Where a chain is given by its changes, count along the chain named. Where “and” joins values, the source holds several entries; their conditions need not be identical. Identical values can stand only once. Blank lines part the entries; values can stand above or below the binder they belong to.

Tests used:
recombinant rat IL-4 = target: T1, recombinant rat IL-4 (rat, UniProt P20096 25-147, limits assumed); assay: competition ELISA: test species IL-4 against biotinylated human IL-4 for binding to IL4-1305
T1 sequence (looked up): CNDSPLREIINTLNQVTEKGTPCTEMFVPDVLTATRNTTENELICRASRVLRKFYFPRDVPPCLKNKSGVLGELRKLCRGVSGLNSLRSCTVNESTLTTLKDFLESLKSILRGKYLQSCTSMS
Protocol: (§1) Recombinant human, mouse, rat, dog, and rabbit IL 4 were purchased from R&D Systems (Minneapolis, MN). Recombinant cynomolgus monkey and sheep IL-4 were prepared by Pfizer, Cambridge, MA).

recombinant dog IL-4 = target: T2, recombinant dog IL-4 (dog, UniProt O77762 25-132); assay: as above
T2 sequence (looked up): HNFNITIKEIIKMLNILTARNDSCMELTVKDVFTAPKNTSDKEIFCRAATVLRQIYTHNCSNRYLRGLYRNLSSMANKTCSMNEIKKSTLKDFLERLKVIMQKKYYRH
Protocol: as §1

recombinant rabbit IL-4 = target: T3, recombinant rabbit IL-4 (rabbit, UniProt Q9MZR8 25-147, limits assumed); assay: as above
T3 sequence (looked up): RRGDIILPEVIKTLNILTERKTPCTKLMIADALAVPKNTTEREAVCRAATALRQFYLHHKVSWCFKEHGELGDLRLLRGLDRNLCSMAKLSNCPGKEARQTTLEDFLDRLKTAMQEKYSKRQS
Protocol: as §1

recombinant sheep IL-4 = target: T4, recombinant sheep IL-4 (sheep, UniProt P30368 25-135, limits assumed); assay: as above
T4 sequence (looked up): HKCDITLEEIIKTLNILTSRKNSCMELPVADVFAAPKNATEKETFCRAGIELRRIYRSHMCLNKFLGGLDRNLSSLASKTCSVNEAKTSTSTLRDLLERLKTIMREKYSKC
Protocol: as §1

recombinant mouse IL-4 = target: T5, recombinant mouse IL-4 (mouse, UniProt P07750 23-140); assay: as above
T5 sequence (looked up): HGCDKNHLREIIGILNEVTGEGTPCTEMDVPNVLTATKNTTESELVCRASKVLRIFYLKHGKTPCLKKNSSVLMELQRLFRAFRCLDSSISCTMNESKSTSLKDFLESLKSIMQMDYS
Protocol: as §1

[1] = target: T6, recombinant cynomolgus monkey IL-4 (cynomolgus monkey, UniProt P79339 25-153); assay: as above
T6 construct: also called Cyno IL-4
T6 sequence (looked up): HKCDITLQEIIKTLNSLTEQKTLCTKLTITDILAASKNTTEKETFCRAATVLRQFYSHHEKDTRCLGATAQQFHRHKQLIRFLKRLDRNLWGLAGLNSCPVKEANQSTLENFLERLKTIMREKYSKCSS
Protocol: as §1

recombinant human IL-4 = target: T7, recombinant human IL-4 (human, UniProt P05112 25-153); assay: cell-based or functional assay
T7 sequence (looked up): T6 sequence (looked up) with K26E, I29V, L33F

rat IL-4 = target: T8, rat IL-4 (rat, UniProt P20096 25-147, limits assumed); assay: ELISA: competition with biotinylated human IL-4 for binding to IL4-1305
T8 construct: also called rt IL-4
T8 sequence (looked up): T1 sequence (looked up)
Protocol: as §1

sheep IL-4 = target: T9, sheep IL-4 (sheep, UniProt P30368 25-135, limits assumed); assay: as above
T9 sequence (looked up): T4 sequence (looked up)
Protocol: as §1

mouse IL-4 = target: T10, mouse IL-4 (mouse, UniProt P07750 23-140); assay: as above
T10 construct: also called mu IL-4
T10 sequence (looked up): T5 sequence (looked up)
Protocol: as §1

cynomolgus monkey IL-4 = target: T11, cynomolgus monkey IL-4 (cynomolgus monkey, UniProt P79339 25-153); assay: as above
T11 construct: mature; also called cy IL-4; cyno IL-4
T11 sequence (looked up): T6 sequence (looked up)
Protocol: as §1

rabbit IL-4 = target: T12, rabbit IL-4 (rabbit, UniProt Q9MZR8 25-147, limits assumed); assay: as above
T12 construct: also called rb IL-4
T12 sequence (looked up): T3 sequence (looked up)
Protocol: as §1

dog IL-4 = target: T13, dog IL-4 (dog, UniProt O77762 25-132); assay: as above
T13 sequence (looked up): T2 sequence (looked up)
Protocol: as §1

human IL-13 [2] = target: T14, human IL-13 (human, UniProt P35225 35-146); assay: SPR 37°C, antibody captured by anti-human IgG, human IL-13 1.56-50 nM
T14 construct: mature; The Pfizer protein carries an N-terminal FLAG tag; bioassays used R&D Systems IL-13; also called hu IL-13; rHu IL-13
T14 sequence (P35225 35-146 limits assumed, form in doubt): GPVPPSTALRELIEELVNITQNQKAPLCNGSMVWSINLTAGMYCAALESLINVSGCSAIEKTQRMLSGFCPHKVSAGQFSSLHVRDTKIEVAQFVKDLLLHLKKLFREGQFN
Protocol: The affinity values (KD) were determined using Surface Plasmon Resonance (SPR) for 10 lead variants identified from bioassay screening.

cynomolgus monkey IL-13 = target: T15, cynomolgus monkey IL-13 (cynomolgus monkey, UniProt Q0PW92 19-132); assay: ELISA: competition with biotinylated human IL-13 for binding to IL13-0001
T15 construct: also called cy IL-13; cyno IL-13; not shown: N-terminal FLAG tag of the Pfizer-made protein
T15 sequence (Q0PW92 entry or part of it limits assumed): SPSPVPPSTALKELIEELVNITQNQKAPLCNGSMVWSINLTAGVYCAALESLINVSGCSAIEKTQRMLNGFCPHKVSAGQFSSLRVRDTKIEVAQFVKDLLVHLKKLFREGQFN

dog IL-13 = target: T16, dog IL-13 (dog, UniProt Q9N0W9 19-131, limits assumed); assay: as above
T16 sequence (looked up): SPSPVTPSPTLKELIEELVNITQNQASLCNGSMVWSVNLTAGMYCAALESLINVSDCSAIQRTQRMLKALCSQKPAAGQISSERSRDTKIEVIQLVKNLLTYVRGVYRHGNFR
Description: (§2) Recombinant human, mouse, rat, and dog IL 13 were purchased from R&D Systems (Minneapolis, MN). Recombinant sheep and rabbit IL-13 were produced by Pfizer Global Biotechnologies (PGBT, Cambridge, MA). Recombinant cynomolgus monkey IL 13 was purchased from Sino Biological (Beijing, China).

mouse IL-13 = target: T17, mouse IL-13 (mouse, UniProt P20109 26-131, limits assumed); assay: as above
T17 construct: also called mu IL-13
T17 sequence (looked up): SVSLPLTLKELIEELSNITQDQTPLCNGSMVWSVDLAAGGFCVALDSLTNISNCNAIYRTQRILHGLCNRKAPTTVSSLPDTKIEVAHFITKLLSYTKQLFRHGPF
Description: as §2

human IL-13 [3] = target: T14, human IL-13; assay: cell-based or functional assay
human IL-13 [4] = target: T14, human IL-13; assay: cell-based or functional assay; remark: listed apart in the source
recombinant human IL-13 [5] = target: T18, recombinant human IL-13 (human, UniProt P35225 35-146); assay: cell-based or functional assay
T18 sequence (P35225 35-146 limits assumed): as the sequence (P35225 35-146 limits assumed, form in doubt) above

recombinant human IL-13 [6] = target: T18, recombinant human IL-13; assay: cell-based or functional assay; remark: listed apart in the source
[7] = target: T19, recombinant cynomolgus monkey IL-13 (cynomolgus monkey, UniProt Q0PW92 19-132); assay: competition ELISA: test species IL-13 against biotinylated human IL-13 for binding to IL13-0001
T19 construct: also called Cyno IL-13
T19 sequence (Q0PW92 entry or part of it limits assumed): as the sequence (Q0PW92 entry or part of it limits assumed) above
Description: as §2

recombinant dog IL-13 = target: T20, recombinant dog IL-13 (dog, UniProt Q9N0W9 19-131, limits assumed); assay: as above
T20 sequence (looked up): T16 sequence (looked up)
Description: as §2

recombinant mouse IL-13 = target: T21, recombinant mouse IL-13 (mouse, UniProt P20109 26-131, limits assumed); assay: as above
T21 sequence (looked up): T17 sequence (looked up)
Description: as §2

recombinant human IL-13 [8] = target: T18, recombinant human IL-13; assay: cell-based or functional assay; remark: listed apart in the source
native human IL-13 = native human IL-13 (human, UniProt P35225 35-146, limits assumed); assay: cell-based or functional assay
Sequence of native human IL-13 (P35225 35-146 limits assumed): as the sequence (P35225 35-146 limits assumed, form in doubt) above

recombinant human IL-13 [9] = target: T18, recombinant human IL-13; assay: cell-based or functional assay; remark: listed apart in the source

binding result (recombinant rat IL-4): no binding
binding result (recombinant dog IL-4): no binding
binding result (recombinant rabbit IL-4): no binding
binding result (recombinant sheep IL-4): no binding
binding result (recombinant mouse IL-4): no binding
binding result [1]: binds
IC50 for STAT6 Phosphorylation in gated B Cells, human whole blood (recombinant human IL-4): 0.073 nM
IC50 for STAT6 Phosphorylation in gated Monocytes, human whole blood (recombinant human IL-4): 0.1 nM
IC50 for STAT6 Phosphorylation in gated T cells, human whole blood (recombinant human IL-4): 0.075 nM
B1: IL4-1305 (antibody, human IgG1, kappa)
heavy: EVTLRESGPALVKPTQTLTLTCTFSGFSLSNFGEGLSWIRQPPGKGLEWLAHIYWDDDKRYNPSLKSRLTISKDTSRNQVVLTMTNMDPVDTATYYCARRETVFYWYFDVWGRGTPVTVSSASTKGPSVFPLAPSSKSTSGGTAALGCLVKDYFPEPVTVSWNSGALTSGVHTFPAVLQSSGLYSLSSVVTVPSSSLGTQTYICNVNHKPSNTKVDKKVEPKSCDKTHTCPPCPAPEAAGAPSVFLFPPKPKDTLMISRTPEVTCVVVDVSHEDPEVKFNWYVDGVEVHNAKTKPREEQYNSTYRVVSVLTVLHQDWLNGKEYKCKVSNKALPAPIEKTISKAKGQPREPQVYTLPPSREEMTKNQVSLTCLVKGFYPSDIAVEWESNGQPENNYKTTPPVLDSDGSFFLYSKLTVDKSRWQQGNVFSCSVMHEALHNHYTQKSLSLSPGK
light: DIQMTQSPSSLSASVGDRVTITCKASQSVDEDGDSYMNWYQQKPGKAPKLLIYAASNLESGVPSRFSGSGSGTDFTLTISSLQPEDFATYYCQQSNEDPPTFGGGTKVEIKRTVAAPSVFIFPPSDEQLKSGTASVVCLLNNFYPREAKVQWKVDNALQSGNSQESVTEQDSKDSTYSLSSTLTLSKADYEKHKVYACEVTHQGLSSPVTKSFNRGEC

binding result (rat IL-4): no binding
binding result (sheep IL-4): no binding
binding result (mouse IL-4): no binding
binding result (cynomolgus monkey IL-4): binds
binding result (rabbit IL-4): no binding
binding result (dog IL-4): no binding
B2: IL4-1305 (antibody, IgG1)
VH: EVTLRESGPALVKPTQTLTLTCTFSGFSLSNFGEGLSWIRQPPGKGLEWLAHIYWDDDKRYNPSLKSRLTISKDTSRNQVVLTMTNMDPVDTATYYCARRETVFYWYFDVWGRGTPVTVSS
light: B1 light
notes: IgG1 effector-null

Kd (human IL-13 [2]): 0.0577 nM
binding result (cynomolgus monkey IL-13): binds
binding result (dog IL-13): no binding
binding result (mouse IL-13): no binding
CD23: Fold bioactivity relative to IL13-0001 (human IL-13 [3]): 1 fold
CD23: Fold bioactivity relative to IL13-1307 (human IL-13 [3]): 29.1 fold
CD23 IC50 [pM] (human IL-13 [3]): 10.5 pM
pSTAT6: Fold bioactivity relative to IL13-0001 (human IL-13 [3]): 1 fold
pSTAT6: Fold bioactivity relative to IL13-1307 (human IL-13 [3]): 1.5 fold
pSTAT6 IC50 [pM] (human IL-13 [3]): 92 pM
CD23: Fold versus IL13-0001 (human IL-13 [4]): 1 fold
CD23 IC50 [pM] Ave. n = 2 (human IL-13 [4]): 6 pM
B3: IL13-0001 (antibody, human IgG1, kappa, V domains shown)
VH: EVQLVESGGGLVQPGGSLRLSCAASGFTFSSYAMSWVRQAPGKGLEWVASISSGDTTYYPDSVKGRFTISRDNAKNSLYLQMNSLRAEDTAVYYCARNEGYYFGLTLWGQGTLVTVSS
VL: DIQMTQSPSSLSASVGDRVTITCKASESVDHFGWSLVHWYQQKPGKAPKLLIYRASNLESGVPSRFSGSGSGTDFTLTISSLQPEDFATYYCQQSNEDPWTFGGGTKVEIKR
notes: also called IL13433-0001; 1RVHC9-VLA4

IC50 (median) for STAT6 Phosphorylation in gated B Cells, human whole blood (recombinant human IL-13 [5]): 0.0665 nM
IC50 (median) for STAT6 Phosphorylation in gated Monocytes, human whole blood (recombinant human IL-13 [5]): 0.525 nM
IC50 (median), IL-13 induced CD23 expression on human monocytes (recombinant human IL-13 [6]): 0.00438 nM
binding result [7]: binds
binding result (recombinant dog IL-13): no binding
binding result (recombinant mouse IL-13): no binding
IC50 (median), Monocyte CD23 expression (recombinant human IL-13 [8]): 0.0105 nM
IC50 (median), STAT6 phosphorylation in HT-29 cells (recombinant human IL-13 [8]): 0.092 nM
IC50 (median), STAT6 phosphorylation in HT-29 cells (native human IL-13): 0.079 nM
IL-13 induced CD23 upregulation (IC50), parental IgG (recombinant human IL-13 [9]): 0.0047 nM and 0.00438 nM
B4: IL13-0001 (antibody, human IgG1, kappa, V domains shown)
VH: B3 VH
VL: B3 VL
notes: as for B3
